Measured values taken from CN101123983A (MEDIMMUNE INC, dated 2008).
Where a chain is given by its changes, count along the chain named.

B1: 11H1 (Fab, V domains shown)
VH: QVQLLQSGAEVKKPGASVKVPCKASGYTFTSYAMSWVRQAPGQGLEWMGWINTNTGNPTYAQGFTGRFVFSLDTSVSTAYLQISSLKAEDTAVYYCARVRLTVYGDGMDVWGQGTLVTVSS
VL: EIVLTQSPATLSVSPGERATLSCRASQSVSSNLAWYQQKPGQAPRLLIYGASTRATGIPDRFSASGSGTDFTLTISRVEPEDFAVYYCQQYGSSWTFGQGTKVEIK
notes: Fab with human gamma1 CH1 and human kappa constant domain; also called GEA44衍生物11H1
B2: 6B7 (Fab, V domains shown)
VH: B1 VH with Y32R, L101F
VL: B1 VL with L33P, S93P
B3: 1A4 (Fab, V domains shown)
VH: B1 VH with Y32R, F64S, L101F
VL: B1 VL with L33P, S93P
B4: 1B10 (Fab, V domains shown)
VH: B1 VH with Y32R, L101F
VL: B1 VL with L33P, R54W, S93P
B5: 1D11 (Fab, V domains shown)
VH: B1 VH with Y32R, L101T, G107N
VL: B1 VL with A34P, S93P
B6: 1G11 (Fab, V domains shown)
VH: B1 VH with Y32R, L101F
VL: B1 VL with A34P, A55P, S93P
B7: 3A12 (Fab, V domains shown)
VH: B1 VH with Y32R, L101F
VL: B1 VL with R54W, S93P
B8: 3C6 (Fab, V domains shown)
VH: B1 VH with Y32R
VL: B1 VL with L33P, A34P

target: T1, 人EphA4-His融合蛋白 (human EphA4 extracellular domain fused to a histidine tag) (human, UniProt P54764 20-547); assay: secondary screen: activity ELISA on coated human EphA4-His, normalised by Fab quantitation ELISA, against parent Fab20
T1 construct: also called rhuEphA4-His; not shown: histidine tag
T1 sequence (P54764 20-547): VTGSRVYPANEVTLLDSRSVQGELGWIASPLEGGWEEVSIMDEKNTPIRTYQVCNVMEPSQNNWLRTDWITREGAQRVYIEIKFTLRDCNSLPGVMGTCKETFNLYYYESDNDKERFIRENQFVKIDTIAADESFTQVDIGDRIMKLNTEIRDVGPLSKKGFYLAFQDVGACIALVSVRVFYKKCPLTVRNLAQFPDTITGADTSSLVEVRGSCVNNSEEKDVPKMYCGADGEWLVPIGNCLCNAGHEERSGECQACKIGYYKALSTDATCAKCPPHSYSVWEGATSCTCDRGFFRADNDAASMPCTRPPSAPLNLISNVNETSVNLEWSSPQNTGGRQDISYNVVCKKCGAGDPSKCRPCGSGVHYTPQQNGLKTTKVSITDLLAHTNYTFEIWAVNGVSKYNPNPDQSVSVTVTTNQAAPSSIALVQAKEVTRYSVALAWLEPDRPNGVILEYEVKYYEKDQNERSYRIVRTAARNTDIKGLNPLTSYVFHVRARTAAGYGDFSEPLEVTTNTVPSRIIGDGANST

| Binder | binding result |
| --- | --- |
| B1 | binds |

target: T1, 人EphA4-His融合蛋白 (human EphA4 …); assay: secondary screen of combination variant Fabs: activity ELISA on coated human EphA4-His, normalised by Fab quantitation ELISA

| Binder | binding result |
| --- | --- |
| B2 | binds |
| B3 | binds |
| B4 | binds |
| B5 | binds |
| B6 | binds |
| B7 | binds |
| B8 | binds |
